The target of test [1] is T1, FcγRIa extracellular domain with C-terminal His tag (human, UniProt P12314 16-292).
T1 construct: extracellular domain; Soluble receptor expressed in FreeStyle293 cells and used as analyte in Biacore; also called FcgRI; 1a; not shown: His tag at the C terminus
In words: SPR Biacore, relative binding amount. In general terms: Surface plasmon resonance follows binding to a sensor surface in real time, without labels.

The target of test [2] is T2, FcγRIIb extracellular domain with C-terminal His tag (human, UniProt P31994 43-217).
T2 construct: extracellular domain; Soluble receptor expressed in FreeStyle293 cells and used as analyte in Biacore; also called FcgRIIb; 2b; not shown: His tag at the C terminus
T2 sequence (looked up): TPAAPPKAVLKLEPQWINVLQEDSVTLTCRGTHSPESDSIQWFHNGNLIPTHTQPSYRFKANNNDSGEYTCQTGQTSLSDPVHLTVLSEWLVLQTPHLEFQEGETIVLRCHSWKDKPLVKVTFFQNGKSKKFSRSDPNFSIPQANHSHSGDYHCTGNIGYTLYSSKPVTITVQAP
In words: SPR Biacore, relative binding amount.

For test [3], the target named is T3, FcγRIIa R (FcγRIIa, allotype R: Arg at position 131) extracellular domain with C-terminal His tag (human, UniProt P12318 34-217).
T3 construct: extracellular domain; also called FcgRIIa R; 2aR; not shown: His tag at the C terminus
T3 sequence (looked up): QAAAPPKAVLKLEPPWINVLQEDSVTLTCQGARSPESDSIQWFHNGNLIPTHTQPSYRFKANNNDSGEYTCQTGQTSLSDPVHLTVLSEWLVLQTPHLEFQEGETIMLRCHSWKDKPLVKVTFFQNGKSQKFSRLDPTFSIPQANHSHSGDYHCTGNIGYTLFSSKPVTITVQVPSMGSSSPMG
In words: ratio He/Con_2aR : He/Con_2b (FcgRIIa R over FcgRIIb), SPR Biacore. The protocol: The heterodimerized antibodies He Abs in which one of the H chains was introduced with an alteration were assayed for their binding activities to each activating FcγR and inhibitory FcγR according to the method described in Example 4. […] The activating FcγRs in FIGS. 26, 27, 28, and 29 are FcγRIa, FcγRIIa (R), FcγRIIa (H), and FcγRIIIa, respectively.
Analysis of interaction between objective antibody and the FcγR was carried out using Biacore T100 (GE Healthcare). HBS-EP+ (GE Healthcare) was used as the running buffer, and the measurement temperature was set to 25° C. Chips produced by immobilizing the antigen peptide by the amine coupling method to a Series S Sencor Chip CM5 (GE Healthcare), or alternatively, chips produced by allowing preliminarily biotinylated antigen peptides to interact with and immobilize onto a Series S Sensor Chip SA (certified) (GE Healthcare) were used. Antibodies of interest were captured onto an antigen peptide-immobilized chip, and allowed to interact to each FcγR diluted with running buffer. To regenerate and repeatedly use the chip, the antibodies captured on the chip were washed off by reacting 10 mM glycine-HCl, pH 1.5.

In test [4] the target is T4, FcγRIIb extracellular domain with C-terminal His tag (human, UniProt P31994 43-217).
T4 construct: extracellular domain; also called FcgRIIb; 2b; not shown: His tag at the C terminus
T4 sequence (looked up): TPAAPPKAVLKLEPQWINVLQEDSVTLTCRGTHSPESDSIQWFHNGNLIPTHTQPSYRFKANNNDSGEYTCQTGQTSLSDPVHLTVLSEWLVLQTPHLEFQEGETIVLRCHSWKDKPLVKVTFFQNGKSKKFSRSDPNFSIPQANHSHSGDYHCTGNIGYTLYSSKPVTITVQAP
In words: SPR Biacore, antibody captured, FcgR analyte; vs HeCon Ab GpH7-A5/GpH7-B3/GpL16-k0 = 100.

Test [5] concerns the target T3, FcγRIIa R (FcγRIIa, allotype R: Arg at …). Described as above.

T1 sequence (P12314 16-292): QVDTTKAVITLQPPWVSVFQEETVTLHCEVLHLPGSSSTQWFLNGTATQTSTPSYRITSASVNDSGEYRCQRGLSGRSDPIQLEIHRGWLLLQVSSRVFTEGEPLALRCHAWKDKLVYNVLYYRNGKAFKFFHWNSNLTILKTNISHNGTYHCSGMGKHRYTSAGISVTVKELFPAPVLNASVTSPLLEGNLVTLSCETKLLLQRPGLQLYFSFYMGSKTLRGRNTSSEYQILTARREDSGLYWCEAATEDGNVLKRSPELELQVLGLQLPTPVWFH

B1: heterodimerized antibody GpH7-A5/GpH7-B3 variant I336_02A/GpL16-k0 (antibody, human IgG1, kappa)
heavy 1: not shown
heavy 2: not shown
light: DIVMTQSPLSLPVTPGEPASISCQASESLVHSNRNTYLHWYLQKPGQSPQLLIYKVSNRFSGVPDRFSGSGSGTDFTLKISRVEAEDVGVYYCSQNTHVPPTFGQGTKVEIERTVAAPSVFIFPPSDEQLKSGTASVVCLLNNFYPREAKVQWKVDNALQSGNSQESVTEQDSKDSTYSLSSTLTLSKADYEKHKVYACEVTHQGLSSPVTKSFNRGEC
notes: Substitution in only one H chain (GpH7-B3 side); also called He Ab
For the molecule B1, the He/Con_1a in test [1] was 106 % of GpH7-A5/GpH7-B3/GpL16-k0 (=100). Also, the He/Con_2b in test [2] was 84.9 % of GpH7-A5/GpH7-B3/GpL16-k0 (=100).

B2: GpH7-A5/GpH7-B3 variant G236_02A/GpL16-k0 (antibody, human IgG1, kappa)
heavy 1: not shown
heavy 2: not shown
light: DIVMTQSPLSLPVTPGEPASISCQASESLVHSNRNTYLHWYLQKPGQSPQLLIYKVSNRFSGVPDRFSGSGSGTDFTLKISRVEAEDVGVYYCSQNTHVPPTFGQGTKVEIERTVAAPSVFIFPPSDEQLKSGTASVVCLLNNFYPREAKVQWKVDNALQSGNSQESVTEQDSKDSTYSLSSTLTLSKADYEKHKVYACEVTHQGLSSPVTKSFNRGEC
notes: He Ab: alteration in the GpH7-B3 H chain only; also called He Ab
Regarding B2, in test [3], the “He_2aR/2b (IIaR/IIb)” value was 1.51. In test [4], this molecule registered a He/Con_2b of 96.5 control = 100. In test [5], the He/Con_2aR came out at 146 control = 100.

B3: heterodimerized antibody GpH7-A5/GpH7-B3 variant T335_02A/GpL16-k0 (antibody, human IgG1, kappa)
heavy 1: not shown
heavy 2: not shown
light: DIVMTQSPLSLPVTPGEPASISCQASESLVHSNRNTYLHWYLQKPGQSPQLLIYKVSNRFSGVPDRFSGSGSGTDFTLKISRVEAEDVGVYYCSQNTHVPPTFGQGTKVEIERTVAAPSVFIFPPSDEQLKSGTASVVCLLNNFYPREAKVQWKVDNALQSGNSQESVTEQDSKDSTYSLSSTLTLSKADYEKHKVYACEVTHQGLSSPVTKSFNRGEC
notes: as for B1
On to B3, for which the He/Con_1a in test [1] was 103 % of GpH7-A5/GpH7-B3/GpL16-k0 (=100). In test [2], the He/Con_2b is 94 % of GpH7-A5/GpH7-B3/GpL16-k0 (=100).

B4: heterodimerized antibody GpH7-A5/GpH7-B3 variant T335_01G/GpL16-k0 (antibody, human IgG1, kappa)
heavy 1: not shown
heavy 2: not shown
light: DIVMTQSPLSLPVTPGEPASISCQASESLVHSNRNTYLHWYLQKPGQSPQLLIYKVSNRFSGVPDRFSGSGSGTDFTLKISRVEAEDVGVYYCSQNTHVPPTFGQGTKVEIERTVAAPSVFIFPPSDEQLKSGTASVVCLLNNFYPREAKVQWKVDNALQSGNSQESVTEQDSKDSTYSLSSTLTLSKADYEKHKVYACEVTHQGLSSPVTKSFNRGEC
notes: as for B1
B4: in test [1], the He/Con_1a is 104 % of GpH7-A5/GpH7-B3/GpL16-k0 (=100). Moreover, the He/Con_2b in test [2] was 96.7 % of GpH7-A5/GpH7-B3/GpL16-k0 (=100).

B5: GpH7-A5/GpH7-B3 variant L235_12R/GpL16-k0 (antibody, human IgG1, kappa)
heavy 1: not shown
heavy 2: not shown
light: DIVMTQSPLSLPVTPGEPASISCQASESLVHSNRNTYLHWYLQKPGQSPQLLIYKVSNRFSGVPDRFSGSGSGTDFTLKISRVEAEDVGVYYCSQNTHVPPTFGQGTKVEIERTVAAPSVFIFPPSDEQLKSGTASVVCLLNNFYPREAKVQWKVDNALQSGNSQESVTEQDSKDSTYSLSSTLTLSKADYEKHKVYACEVTHQGLSSPVTKSFNRGEC
notes: as for B2
Regarding B5, in test [3], the “He_2aR/2b (IIaR/IIb)” value came to 1.69. The molecule further yielded a He/Con_2aR in test [5] of 16.2 control = 100.

B6: GpH7-A5/GpH7-B3 variant G237_12R/GpL16-k0 (antibody, human IgG1, kappa)
heavy 1: not shown
heavy 2: not shown
light: DIVMTQSPLSLPVTPGEPASISCQASESLVHSNRNTYLHWYLQKPGQSPQLLIYKVSNRFSGVPDRFSGSGSGTDFTLKISRVEAEDVGVYYCSQNTHVPPTFGQGTKVEIERTVAAPSVFIFPPSDEQLKSGTASVVCLLNNFYPREAKVQWKVDNALQSGNSQESVTEQDSKDSTYSLSSTLTLSKADYEKHKVYACEVTHQGLSSPVTKSFNRGEC
notes: as for B2
Take B6: the “He_2aR/2b (IIaR/IIb)” value in test [3] was 2.47. The same molecule returned a He/Con_2aR in test [5] of 24.2 control = 100.

B7: heterodimerized antibody GpH7-A5/GpH7-B3 variant T335_12R/GpL16-k0 (antibody, human IgG1, kappa)
heavy 1: not shown
heavy 2: not shown
light: DIVMTQSPLSLPVTPGEPASISCQASESLVHSNRNTYLHWYLQKPGQSPQLLIYKVSNRFSGVPDRFSGSGSGTDFTLKISRVEAEDVGVYYCSQNTHVPPTFGQGTKVEIERTVAAPSVFIFPPSDEQLKSGTASVVCLLNNFYPREAKVQWKVDNALQSGNSQESVTEQDSKDSTYSLSSTLTLSKADYEKHKVYACEVTHQGLSSPVTKSFNRGEC
notes: as for B1
B7: the He/Con_1a in test [1] was 113 % of GpH7-A5/GpH7-B3/GpL16-k0 (=100). Also, the He/Con_2b in test [2] was 91.9 % of GpH7-A5/GpH7-B3/GpL16-k0 (=100).

(Values after patent US20180155451A1 (published 2018).)
